Columns and labels:
[1] = molecular target: T1, SARS-CoV-1的RBD重组蛋白 SARS-CoV1-RBD (SARS-CoV-1, UniProt P59594 306-527); assay: indirect ELISA, RBD coated at 2 μg/mL, antibody at 10, 1, 0.1 and 0.01 μg/mL
[2] = molecular target: T1, SARS-CoV-1的RBD重组蛋白 SARS-CoV1-RBD

B1: 小鼠单克隆抗体36H6 (antibody, V domains shown)
VH: EVQLQQSGPELVNPGASVKISCKTSGYTFTEYTMHWVKQSHGKSLEWIGGINPNNGDTIYNQKFKGKATLTVDKSSSTAYMELRSLTSEDSAVFYCAREGDYYVSSYGYWGQGTTLTVSS
VL: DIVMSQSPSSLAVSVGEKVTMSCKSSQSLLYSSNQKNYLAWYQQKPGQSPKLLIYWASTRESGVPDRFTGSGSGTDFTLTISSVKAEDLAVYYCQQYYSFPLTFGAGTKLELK
[1]
  binding result: no binding (tested: 10μg/mL)

B2: 小鼠单克隆抗体2B4 (antibody, V domains shown)
VH: QVQLQQPGAELVRPGASVKLSCKASGYTFTSYWMNWVKQRPEQGLEWIGRIDPYDSETHYNQKFKDKAILTVDKSSTTAYMQLSSLTSEDSAVYYCARWGTVEWFFDYWGQGTTLTVSQ
VL: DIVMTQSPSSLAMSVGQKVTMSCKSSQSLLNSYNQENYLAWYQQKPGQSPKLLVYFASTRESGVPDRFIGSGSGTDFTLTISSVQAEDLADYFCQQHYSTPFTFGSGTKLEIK
[2]
  Kd: 34.1 nM

— CN113583116A (YANG SHENG TANG CO LTD; UNIV XIAMEN, dated 2021)
